Source: paper PMC11490872, “Drug-resistant menin variants retain high binding affinity and interactions with MLL1” (The Journal of Biological Chemistry, 2024)
Changes are numbered by the printed parent chain. Like-named read-outs stand apart in the source and are kept apart here.

T1: menin^G331R bound to FLSN-MLL1^4-43 (Homo sapiens, UniProt O00255, G326R)
T1 construct: The gene encoding full-length human menin was cloned into a pET32a expression vector; thioredoxin-His6 (cleaved yes); made in house; host or cells: E. coli BL21(DE3); probe peptide from GenScript
T1 sequence (O00255 1-610 G326R): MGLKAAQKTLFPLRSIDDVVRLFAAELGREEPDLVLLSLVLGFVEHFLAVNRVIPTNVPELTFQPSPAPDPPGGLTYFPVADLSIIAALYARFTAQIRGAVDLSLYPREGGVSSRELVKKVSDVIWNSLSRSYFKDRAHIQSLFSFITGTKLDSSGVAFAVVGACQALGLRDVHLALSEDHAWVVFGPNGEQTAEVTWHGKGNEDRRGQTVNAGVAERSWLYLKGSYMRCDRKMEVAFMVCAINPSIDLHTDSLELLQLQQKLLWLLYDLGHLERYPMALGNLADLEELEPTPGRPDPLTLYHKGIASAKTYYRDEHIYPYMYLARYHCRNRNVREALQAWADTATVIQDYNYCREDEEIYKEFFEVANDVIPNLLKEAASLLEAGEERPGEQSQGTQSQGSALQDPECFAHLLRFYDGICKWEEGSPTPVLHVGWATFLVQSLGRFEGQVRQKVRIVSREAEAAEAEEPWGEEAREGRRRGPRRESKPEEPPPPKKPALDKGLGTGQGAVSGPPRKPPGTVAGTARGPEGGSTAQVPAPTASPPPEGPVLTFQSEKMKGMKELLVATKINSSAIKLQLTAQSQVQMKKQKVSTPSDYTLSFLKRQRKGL

T2: menin^T349M bound to FLSN-MLL1^4-43 (Homo sapiens, UniProt O00255, T344M)
T2 construct: The gene encoding full-length human menin was cloned into a pET32a expression vector; thioredoxin-His6 (cleaved yes); made in house; host or cells: E. coli BL21(DE3); probe peptide from GenScript
T2 sequence (O00255 1-610 T344M): T1 sequence (O00255 1-610 G326R) with R326G, T344M

T3: menin^WT (Homo sapiens, UniProt O00255)
T3 construct: Full-length human menin was expressed in BL21(DE3) cells; thioredoxin-His6 (cleaved yes); made in house; host or cells: E. coli BL21(DE3)
T3 sequence (O00255 1-610): T1 sequence (O00255 1-610 G326R) with R326G

B1: MLL1^160: N-terminal 160 amino acids of human MLL1, Cys2 mutated to alanine, recombinant (protein)
chain: MAHSARWRFPARPGTTGGGGGGGRRGLGGAPRQRVPALLLPPGPPVGGGGPGAPPSPPAVAAAAAAAGSSGAGVPGGAAAASAASSSSASSSSSSSSSASSGPALLRVGPGFDAALQVSAAIGTNLRRFRAVFGESGGGGGSGEDEQFLGFGSDEEVRVR
modifications: The printed 'Cys2' is the single N-terminal cysteine, Cys5 in the entry (peptide S4-A5-R6); Trx-His6 tag cleaved

How the values were obtained:
[1] = biological target: T1, menin^G331R bound to FLSN-MLL1^4-43; experiment: FP competition, displacement of FLSN-MLL1^4-43 from menin^G331R; assay type: binding
Procedure: (§1) FP competition experiments used FLSN-MLL1^4-43 at 4 nM and menin at 4 nM against varying concentrations of unlabeled MLL1 peptides in FP buffer for IC50 determination. Protein-peptide complexes were incubated for 1 h before unlabeled peptide competitors were added to ensure complete binding. Unlabeled peptide competitors were incubated with the protein-peptide complexes for 3 h before measurement using the PHERAstar microplate reader ([25]). Experiments with Revumenib were run with the same steps and conditions but used 5% DMSO in the final solution. Kd and IC50 values were calculated using GraphPad Prism 10 by plotting mP values measured for each protein/MLL1 peptide or Revumenib as a function of protein/MLL1 peptide (or Revumenib) concentration ([25]). All FP binding and competition experiments were run in triplicate.

[2] = biological target: T2, menin^T349M bound to FLSN-MLL1^4-43; experiment: FP competition, displacement of FLSN-MLL1^4-43 from menin^T349M; assay type: binding
Procedure: as §1

menin^WT = biological target: T3, menin^WT; experiment: ITC binding of MLL1 fragments to menin^WT
Procedure: Menin and MLL1 fragments were dialyzed at 4 °C against a 50 mM sodium phosphate pH 7.5, 50 mM NaCl, 1 mM TCEP buffer, and degassed prior to measurement. The titrations were performed using the VP-ITC system (MicroCal) at 25 °C. The calorimetric cell, which contained menin (concentrations in the 5–10 μM range), was titrated with the MLL1^160 and MLL1^4-15 derived peptides (concentration range 40–100 μM) injected in 10-μL aliquots. Data was analyzed using Origin 7.0 (OriginLab) to obtain Kd, stoichiometry, entropy, and enthalpy ([2]). Experiments with WT, M327I, T349M, and G331R menin and MLL1^160 or MLL1^4-15 were run in duplicate. Experiments with G331D menin and MLL1^160 were run in duplicate while experiments with G331D and MLL1^4-15 were run in quadruplicate.

[3] = FP competition with MLL1 fragments, 3 h incubation, N = 3, Fig. 3B, read-out: G331R IC50
[4] = FP competition with MLL1 fragments, 3 h incubation, N = 3, Fig. 3B, read-out: T349M IC50

Molecule | IC50 ([1]; FP competition, 5% DMSO, 3 h, N = 3, Fig. 4A, read-out: IC50 (nM), menin variant G331R) [nM] | reduction of activity against G331R ([1]; versus wild-type IC50) [fold] | IC50 ([2]; FP competition, 5% DMSO, 3 h, N = 3, Fig. 4A, read-out: IC50 (nM), menin variant T349M) [nM] | IC50 [1, 3] [nM] | IC50 [2, 4] [nM] | Kd (menin^WT; ITC summary Fig. 1B, values marked *, n = 2, read-out: WT Kd (nM), ITC) [nM] | Kd (menin^WT; ITC, representative binding isotherm Fig. 1A, 25 °C, read-out: Kd) [nM]
CCN(C(=O)c1cc(F)ccc1Oc1cncnc1N1CC2(CCN(C[C@H]3CC[C@H](NS(=O)(=O)CC)CC3)CC2)C1)C(C)C [Revumenib, reference compound] | 30 ± 2.5 | 5 | 125 ± 11 |  |  |  | 
MLL1^46: recombinant MLL1 fragment spanning amino acids 1–46, containing MBM1 and MBM2 (MAHSARWRFPARPGTTGGGGGGGRRGLGGAPRQRVPALLLPPGPPV; The printed 'Cys2' is Cys5 in the entry (peptide S4-A5-R6); Trx-His6 tag cl) |  |  |  | 3.1 ± 0.7 | 1.9 ± 0.5 |  | 
B1 |  |  |  | 8 ± 0.5 | 4.4 ± 0.8 | 0.5 ± 0.3 | 0.5 ± 0.2
